Source: PMC4036818
Read-outs that look alike come from different tables or passages of the source.

Columns and labels:
[1] = biological target: native SARS-CoV 3CLpro (3C-like protease, nsp5) with an n-terminal methionine (SARS-CoV (Urbani strain)) (UniProt P0C6X7); test: enzyme activity against enzyme concentration
[2] = biological target: native SARS-CoV 3CLpro (3C-like protease, nsp5) with an n-terminal methionine (SARS-CoV (Urbani strain)) (UniProt P0C6X7); test: enzyme activity against enzyme concentration; remark: listed apart in the source

## native SARS-CoV 3CLpro (3C-like protease, nsp5) with an n-terminal methionine (from UniProt P0C6X7 3241-3544) (enzyme)
[1]
  Kd: 250 to 1000 nM
[2]
  Kd: 230 nM
